Measured values: patent US20190022241A1

What was measured:
[1] = target: human SEZ6 on NTX tumor cells (human) (UniProt Q53EL9); assay: flow cytometry dot plot of LU64 NTX tumor cells, CD324 against MOPC isotype control
[2] = target: human SEZ6 on NTX tumor cells (human) (UniProt Q53EL9); assay: flow cytometry dot plot of LU86 NTX tumor cells, CD324 against MOPC isotype control
[3] = target: human SEZ6 on NTX tumor cells (human) (UniProt Q53EL9); assay: flow cytometry dot plot of LU117 NTX tumor cells, CD324 against MOPC isotype control

% of cells in the upper right quadrant (CD324+, MOPC+) [1]: 0.597%
% of cells in the lower right quadrant (CD324-, MOPC+) [2]: 0.014%
% of cells in the upper right quadrant (CD324+, MOPC+) [2]: 0.483%
% of cells in the upper right quadrant (CD324+, MOPC+) [3]: 0.347%
Substance: MOPC (antibody)
